Test results: patent publication EP2004352B1 (Palatin Technologies, Inc., dated 2012)
Bridge positions count the residues as written; N and C are the ends.

Key:
[1] = molecular target: T1, human natriuretic peptide receptor A (NPRA) (human, UniProt P16066 33-1061); experiment: competition with [125I]-ANP on HEK-hNPRA membrane homogenates
T1 construct: whole, on cells; the cGMP assay used whole HEK-hNPRA cells; also called hNPRA; HEK-hNPRA cells
T1 sequence (looked up): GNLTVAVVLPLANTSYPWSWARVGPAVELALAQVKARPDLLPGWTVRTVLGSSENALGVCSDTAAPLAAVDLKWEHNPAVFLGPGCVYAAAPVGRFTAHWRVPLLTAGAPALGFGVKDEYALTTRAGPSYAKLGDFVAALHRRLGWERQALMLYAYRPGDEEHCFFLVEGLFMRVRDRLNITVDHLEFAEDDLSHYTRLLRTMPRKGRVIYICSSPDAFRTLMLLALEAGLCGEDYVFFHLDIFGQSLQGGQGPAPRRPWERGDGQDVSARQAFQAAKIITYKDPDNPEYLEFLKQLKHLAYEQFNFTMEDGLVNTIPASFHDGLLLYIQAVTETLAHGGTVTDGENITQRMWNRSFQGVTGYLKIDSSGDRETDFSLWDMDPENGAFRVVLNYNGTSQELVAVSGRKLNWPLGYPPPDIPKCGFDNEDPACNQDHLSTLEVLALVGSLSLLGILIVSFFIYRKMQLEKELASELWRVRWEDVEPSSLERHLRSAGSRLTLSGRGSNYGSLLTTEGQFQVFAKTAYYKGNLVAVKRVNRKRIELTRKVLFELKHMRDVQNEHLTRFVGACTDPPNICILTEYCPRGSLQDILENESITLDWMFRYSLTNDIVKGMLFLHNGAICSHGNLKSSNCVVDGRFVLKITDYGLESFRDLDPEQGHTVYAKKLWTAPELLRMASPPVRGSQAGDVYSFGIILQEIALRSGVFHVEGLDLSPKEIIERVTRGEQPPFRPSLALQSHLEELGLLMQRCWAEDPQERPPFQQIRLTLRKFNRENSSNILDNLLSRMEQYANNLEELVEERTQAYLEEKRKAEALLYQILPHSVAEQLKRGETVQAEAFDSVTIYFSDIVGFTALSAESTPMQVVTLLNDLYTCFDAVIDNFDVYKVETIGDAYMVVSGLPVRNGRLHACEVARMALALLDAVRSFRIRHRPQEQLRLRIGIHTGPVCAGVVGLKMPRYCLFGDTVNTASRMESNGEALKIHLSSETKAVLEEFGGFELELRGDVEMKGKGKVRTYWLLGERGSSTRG

[2] = molecular target: T1, human natriuretic peptide receptor A …; experiment: cell-based or functional assay

B1: mini-ANP, H-Met-cyclo(Cys-His-Phe-Gly-Gly-Arg-Met-Asp-Arg-Ile-Ser-Cys)-Tyr-Arg-NH2 (peptide)
peptide: H-MCHFGGRMDRISCYR-NH2
modifications: disulfide 2-13
SMILES: CC[C@H](C)[C@@H]1NC(=O)[C@H](CCCNC(=N)N)NC(=O)[C@H](CC(=O)O)NC(=O)[C@H](CCSC)NC(=O)[C@H](CCCNC(=N)N)NC(=O)CNC(=O)CNC(=O)[C@H](Cc2ccccc2)NC(=O)[C@H](Cc2c[nH]cn2)NC(=O)[C@@H](NC(=O)[C@@H](N)CCSC)CSSC[C@@H](C(=O)N[C@@H](Cc2ccc(O)cc2)C(=O)N[C@@H](CCCNC(=N)N)C(N)=O)NC(=O)[C@H](CO)NC1=O
notes: also called min-ANP; parent polypeptide
[1]
  Ki: 0.6 nM
[2]
  EC50 (cGMP accumulation): 3.3 nM
